Experimental data from patent US20260183373A1.

Columns and labels:
Aβ(1-40) [1] = biological target: Aβ(1-40) (UniProt P05067)
Aβ(1-42) [2] = biological target: Aβ(1-42) (UniProt P05067); assay: cell-based or functional assay
Aβ(1-40) [3] = biological target: Aβ(1-40) (UniProt P05067); assay: cell-based or functional assay
Aβ(1-42) [4] = biological target: Aβ(1-42) (UniProt P05067)
Aβ(1-40) [5] = biological target: Aβ(1-40) (UniProt P05067); remark: listed apart in the source
Aβ(1-42) [6] = biological target: Aβ(1-42) (UniProt P05067); remark: listed apart in the source

Chain of neprolysin (NEP) (P08473 52-750 limits assumed): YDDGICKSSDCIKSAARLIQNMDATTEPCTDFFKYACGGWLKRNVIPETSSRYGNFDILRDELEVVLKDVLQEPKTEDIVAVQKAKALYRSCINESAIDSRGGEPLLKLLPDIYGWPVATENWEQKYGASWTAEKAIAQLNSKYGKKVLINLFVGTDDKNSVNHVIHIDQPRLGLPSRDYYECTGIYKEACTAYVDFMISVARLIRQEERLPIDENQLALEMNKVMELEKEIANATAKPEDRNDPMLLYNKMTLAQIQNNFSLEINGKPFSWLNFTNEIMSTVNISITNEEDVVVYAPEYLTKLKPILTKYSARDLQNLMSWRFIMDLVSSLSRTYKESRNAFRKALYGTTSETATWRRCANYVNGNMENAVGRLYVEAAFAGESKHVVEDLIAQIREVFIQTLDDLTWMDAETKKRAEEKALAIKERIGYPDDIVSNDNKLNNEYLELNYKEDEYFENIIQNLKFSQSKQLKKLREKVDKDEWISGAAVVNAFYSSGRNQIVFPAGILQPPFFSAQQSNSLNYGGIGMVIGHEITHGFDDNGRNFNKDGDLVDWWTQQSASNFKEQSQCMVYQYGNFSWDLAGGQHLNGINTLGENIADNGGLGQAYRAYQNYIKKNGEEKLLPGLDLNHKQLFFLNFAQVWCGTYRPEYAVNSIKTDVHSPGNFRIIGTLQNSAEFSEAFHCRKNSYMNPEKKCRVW
Chain of MMP2 (enzyme) (P08253 110-660): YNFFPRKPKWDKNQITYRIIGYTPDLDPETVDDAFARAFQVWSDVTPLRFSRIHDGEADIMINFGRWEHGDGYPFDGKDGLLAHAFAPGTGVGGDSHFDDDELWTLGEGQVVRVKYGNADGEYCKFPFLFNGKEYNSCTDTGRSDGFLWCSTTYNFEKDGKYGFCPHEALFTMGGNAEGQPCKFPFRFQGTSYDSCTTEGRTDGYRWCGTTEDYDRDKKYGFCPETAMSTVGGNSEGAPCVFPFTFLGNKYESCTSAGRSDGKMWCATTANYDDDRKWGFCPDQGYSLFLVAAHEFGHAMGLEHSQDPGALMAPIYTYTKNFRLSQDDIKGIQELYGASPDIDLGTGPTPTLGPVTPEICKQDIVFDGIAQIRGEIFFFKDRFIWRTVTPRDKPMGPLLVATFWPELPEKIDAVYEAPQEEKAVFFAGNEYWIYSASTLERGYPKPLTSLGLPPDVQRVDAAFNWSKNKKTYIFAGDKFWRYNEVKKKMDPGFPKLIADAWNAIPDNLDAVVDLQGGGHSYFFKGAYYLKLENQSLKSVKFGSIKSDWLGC

| Substance | EC50 (read off the curve) (Aβ(1-40) [1]) | EC50 of Aβ cleavage (ELISA-based assay of intact Aβ) (Aβ(1-42) [2]) | EC50 of Aβ cleavage (ELISA-based assay of intact Aβ) (Aβ(1-40) [3]) | EC50 of Aβ(1-42) cleavage (intact Aβ by ELISA) (Aβ(1-42) [4]) | EC50 of Aβ(1-40) cleavage (intact Aβ by ELISA) (Aβ(1-40) [5]) | EC50 (read off the curve) (Aβ(1-42) [6]) |
| --- | --- | --- | --- | --- | --- | --- |
| MMP2 (enzyme) | 90 nM |  |  |  |  |  |
| neprolysin (NEP) (from UniProt P08473 52-750) (enzyme) |  | 12 nM | 12 nM | 44 nM | 19 nM |  |
| NEP2 (enzyme) | 50 nM |  |  |  |  | 60 nM |
| insulin-degrading enzyme (IDE) (from UniProt P14735 42-1019) |  | 0.1 nM | 0.1 nM |  |  |  |
